From US20030181372A1

Target: human paraoxonase (PON1A) (human) (UniProt P27169)
Assay: cell-based or functional assay

UniProt P27169, sequence (P27169 2-355 limits assumed): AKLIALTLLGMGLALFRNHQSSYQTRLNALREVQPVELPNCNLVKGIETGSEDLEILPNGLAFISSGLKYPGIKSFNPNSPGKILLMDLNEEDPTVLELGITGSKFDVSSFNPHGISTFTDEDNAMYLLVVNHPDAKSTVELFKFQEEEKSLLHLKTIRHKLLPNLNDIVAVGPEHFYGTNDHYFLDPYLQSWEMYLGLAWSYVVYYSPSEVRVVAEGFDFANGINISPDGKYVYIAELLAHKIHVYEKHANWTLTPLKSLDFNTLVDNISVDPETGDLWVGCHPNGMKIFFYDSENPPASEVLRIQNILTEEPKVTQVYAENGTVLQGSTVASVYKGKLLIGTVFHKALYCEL

Substance | arylesterase activity, CHO-PON cells cultured 24 h with 10 µg/mL ApoA-I (U/mg cell protein) | increase in arylesterase activity compared to ApoA-IWT [%] | other results
recombinant human ApoA-I K96C | 0.067 | – | reduction in arylesterase activity compared to ApoA-IWT: 30%
recombinant human ApoA-I R27C | 0.125 | 30 | –
recombinant human ApoA-I R151C (ApoA-IParis) | – | – | secreted PON arylesterase activity, CHO-PON cells cultured 24 h with 10 µg/mL ApoA-I (U/mg cell protein): 0.086
recombinant human ApoA-I R173C (ApoA-IMilano) | – | – | secreted PON arylesterase activity, CHO-PON cells cultured 24 h with 10 µg/mL ApoA-I (U/mg cell protein): 0.076

Now from value to substance, other results behind:

arylesterase activity, CHO-PON cells cultured 24 h with 10 µg/mL ApoA-I (U/mg cell protein) | increase in arylesterase activity compared to ApoA-IWT [%] | Substance | other results
0.126 | 30 | recombinant human ApoA-I R10C | –
0.121 | 30 | recombinant human ApoA-I R61C | –
0.095 | – | recombinant human ApoA-I wild type (His-6 tagged) | ApoA-I concentration at which secreted PON activity is maximal (CHO-PON cell medium): 12 µg/mL; PON activity of baseline conditioned medium incubated 3 h at 37° C. with 10 µg/mL lipid-free ApoA-I postculture (relative to baseline): 94.4%; PON activity of cells grown with 10 µg/mL ApoA-I over cells grown without ApoA-I: 203%; arylesterase activity in medium at 24 h, CHO-PON cells in the presence of 10 µg/mL ApoA-I (unit/mg of cell protein): 0.087; increase in arylesterase activity on culturing CHO-PON cells with ApoA-I: 2.1 fold
